Test system: C[C@@H]1O[C@@H](Oc2ccc([N+](=O)[O-])cc2)[C@H](O)[C@H](O)[C@H]1O
Assay: purified protein
Conditions: pH 6.5, 65 °C, no additives

## α-L-rhamnosidase from A. terreus (Rha; synthetic gene MRha; RASE) (Aspergillus terreus)
  Km: 481 ± 10 µM

Reference: PMC5327507, “Enhancing the thermostability of α-L-rhamnosidase from Aspergillus terreus and the enzymatic conversion of rutin to isoquercitrin by adding sorbitol” (BMC Biotechnology, 2017)
